From the RNAGym collection of RNA variant scans (doi:10.1073/pnas.2313332121)

B1: TPR t1 (parent)
chain: GACCAAUCUGCCCUCAGAGCUCGAGAACAUCUUCGGAUGCAGAGGAGGCAGGCUUCGGUGGCGCGAUAGCGCCAACGUCCUCAACCUCCAAUGCAUCCCACCACAUGAUGAUGCCUGAAGAGCCUUGGUUUUUUG

Variants of: B1
Assay: polymerase ribozyme fitness, log enrichment relative to wild type (log ratio); higher = more active; in vitro selection for triplet polymerase activity
Method in brief: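 Libraries of mutants in each subunit of a heterodimeric triplet polymerase ribozyme were generated by PCR and transcribed. In triplicate, each went through one in vitro selection round: annealing with biotinylated primer, partner subunit and triplets; frozen incubation at −7 °C; gel excision of extended constructs; streptavidin-bead capture; RT-PCR. Fitness, taken from Illumina sequencing of input and output libraries, is the logarithm of a genotype's enrichment over wild-type enrichment, averaged across replicates with inverse-variance weights. The logarithm is base 2, and genotypes needed ≥10 input reads and ≥1 read per output to be kept.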
With GACCAAUCUGCCCUCAGAGCUCGAGAACAUCUUCGGAUGCAGAGGAGGCACGCUUCGGUGGCGCGAUAGCGCCAACGUCCUCAACCUCCAAUGCAUCCCACCACAUGAUGAUCCCUGAAGAGCCUUGGUUUUUUG the “polymerase ribozyme fitness (log ratio)” value was -5.71.
In the case of GACGAAUCUGACCUCGGAGCUCGAGAACAUCUUCGGUUGCAGAGGAGGCAGGCUUCGGUGGCGCGAUAACGCCAACCUCCUCAACCUCCAAUGCAUCCCACCACAUGAUGAUUCCUGAAGAGCUUUGGUUUUUUG, the “polymerase ribozyme fitness (log ratio)” value is reported as -4.9.
For GACCAAUCUGGCCUCAGAGCUCGAGAACAUCUUCGGAUGCAGAGGAGGCAGGCUUCGGUGGCGCGAUAGCGUCAACGUCCUCAACCUCCAAUGCAUCCCACCACAUGAUGAUGCCUGAAGAGCCUUGGUUUUUUG, the “polymerase ribozyme fitness (log ratio)” value was 0.401.
In the case of GACCAAUCUGCCCUCAGAGCUCGAGAACAUCUUCGGAUGCAGAGGAGGCAGGCUUCGGUGGCGCGAUAGCGCCAACGUCCUCAACCUCCAAUGCCUCCCACCACAUGAUGAUGCCUGAAUAGCCUUGGAUUUUUG, the “polymerase ribozyme fitness (log ratio)” value is reported as -1.76.
With GACCAAUCAGCCCUCAGAGCUCGAGAACAUCUUCGGAUGCAGAGGCGGCCGGCUUCGGUGUCGCGAUAGCGCCAACGUCCUGAACCUCCAAUGCAUCCCACCACAUGAUGAUGCCUGAAGAGCCUUGGUUUUUUG the “polymerase ribozyme fitness (log ratio)” value was -1.26.
In the case of GACCAAUCUGCCCUCAGAGCUCGAGAACAUCUUCGGAUGCAGAGGAGGCAGGCUUCGGUGGCGCGAUAGCGCCAACGUCCUCAACCUCCAAUGCAUCCCACCACAUGAUGCUACCUGAAGAGCCUUGGUUUUUUG, the “polymerase ribozyme fitness (log ratio)” value is reported as -3.44.
With GACCAAUCUGCCCUCAGAGCUCGAGAACAUCUUCGGAUGCAGAGGAGGCAGGCUUCGGUGGCGCGAUAGCGCCAACGUCCUCAACCUCCAAUGCAUCCCACCGCAUGAUGAUGCCUGAAGAGCCUUGGUUUUUUG the “polymerase ribozyme fitness (log ratio)” value was -3.07.
In the case of GACCAAUCUGCCCUCAGAGCUCGAGAACAUCUUCGGAUGCAGAGGGGGCAGGCUUCGGUGGCGCGAUAGCGCCAACGUCCUUAACCUCCAAUGCAUCCCACCACAAGAUGAUGCCUGAAGAGCCUUGGUUUUUUG, the “polymerase ribozyme fitness (log ratio)” value is reported as -0.902.
In the case of GACCAAUCUGCCCUCAGAGCUCGAGAACAUCUUCGGAUGCAGAGGAGGCAGGCUUCGGUGGCGAGAUAGCGCCAACGUCCUCAACCUCCAAUGCAUCCCACCACAUGAUGAUGCCUGAAGAGACUUGGUUUUUUG, the “polymerase ribozyme fitness (log ratio)” value is reported as -3.79.
With GACCAAUCUGGCCUCAGAGCUCGAGAACAUCUUCGGAUGCAGAGGAGGCAGGGUUCGGUGGCGCGAUAGUGCCAACGUCCUCAACCUCCAAUGCAGCCCACCACCUGAUGAGGCCUGAAGAGCCUUGGUUUUUUG the “polymerase ribozyme fitness (log ratio)” value was -7.25.
For GACCAAUCUGCCCUCAGAGCUCGAGAACAUCUUCGGAUGCAGAGGAGGCAGGCUUCGGUGGCGUGAUAGCGUCAACGUCCUCGACCUCCAAUGCAUCCCACCACAUGAUGAUGCCUGAAGAGCCUUGGUUUUGUG, the “polymerase ribozyme fitness (log ratio)” value was -1.1.
In the case of GACCAAUCUGCCCUCAGAGCUCGAGAACAUCUUCGGAUGCAGACGAGGCAGGCUUCGGUGGCGCGAUAGCGCCAACGUCCUCAACCUCCAAUGCAUGCCACCACAUGAUGAAGCCUGAAGAGCCUUGGUUUUUUG, the “polymerase ribozyme fitness (log ratio)” value is reported as -4.06.
For GACCAAUCUGCCCUCAGAGCUCGAGAACAUCUUCGGAUGCAGAGGAGGCAGGCUUCGGUGGCGCGAUAGCGGCAACGUCCUCAACCUCCCAUGCAUCCCAUCACAUGAUGAUGCCUGAAGAGCCUUGGUUUUUUG, the “polymerase ribozyme fitness (log ratio)” value was -1.47.
With GACCAGUCUGCCCUCAGAGCUCGAGAACAUCUUCGGAUGCAGGGGAGGCAGGCUUCGGUGGCGCGAUAGCGCCAACGUCCUCAACCUCCAAUGCAUCCCACCACAUGAUGAUGCCUGAAGAGCCUUGGUUUUUUG the “polymerase ribozyme fitness (log ratio)” value was -2.57.
With GACCAAUCUGCCCUCAGAGCUCGAGAACAUCUUCGGAUGCAGAGGAGGCAGGUUUCGGUGGCGCGAUAGCGCCAACGUCCUCAACCUCCAAUGCAUCCCACCACAUGAUGAUGCCUGAAGAGACUUGGUUUUUUG the “polymerase ribozyme fitness (log ratio)” value was 1.2.
With GACCAAUCUGACCUCAGAGCUCGAGAACAUCUUCGGAUGCAGAGCAGGCAGGCUUCGGUGGUGCGAUAGCGCCAACGUCCUCAACCUCCAAUGCAUCCCACCACAUGAUGAUGCCUGAAGAGCCUUGGUUUUUUG the “polymerase ribozyme fitness (log ratio)” value was -2.56.
With GACCAAUCUGCCCUCAGAGCUCGAGAACAUCUUCGGAUGCAGAGGAGGCGGGCUUCGGUGCCGCGAUAGCGCCAACGUCCUCAACCUCCAAUGCAUCCCACCACAUGAUGAUGCCUGAAGAGCCUUGGUUUUUUG the “polymerase ribozyme fitness (log ratio)” value was -3.07.
In the case of GACCAACCUGCCCUCAAAGCUCGGGCACAUCUUCGGAUGCAGAGGAGGAAGGCUUUGGUGGCGCGAUAGCGCGAACGUCCUCAACCCCCAAUGCAUCCCACCACAUGAUGAUACCUGAAGAGCCUUGGUUUUUUG, the “polymerase ribozyme fitness (log ratio)” value is reported as -7.
With GACCAAUCUGCCCUCAGAGCUCGAGAACAUCUUCGGAUGCAGAGGAGGCAGGCUUCGGUGGCGCGAUACCGCCAACGUCCUCAACCUCCAAUGCAUCCCACCACAUGAAGAUGCCUGAAGAGCCUUGGUUUUUUG the “polymerase ribozyme fitness (log ratio)” value was -8.01.
With GACCAAUCUGCCCUCAGAGCUCGAGAACAUCUUCGGAUGCAGAGGAGGCAGCCUUCGGUGGCGCGAUAGCGCCAACGUCCUCAGCCCCCAAUGCAUCCCACCACAUGAUGGUGCCUGAAGAGCCUUGGUUUUUUG the “polymerase ribozyme fitness (log ratio)” value was -2.78.
With GACCAAUCUGCCCUCAGAGCUCUAGAACAUCUUCGGAUGCAGAGGAGGCAGGUUUCGGUGGCGCGAUAGCGCCAACGUCCUCAACCUCCAAUGCAUCCCACCACAUGAUGAUGCCUGAAGAGCCUUGGUUUUUUG the “polymerase ribozyme fitness (log ratio)” value was -5.67.
With GACCAAUCUGCCCUCAGAGCUCGAGAACAUCUACGGAUGCAGAGGAGGCAGGCUUCUGUGGCGCGAUAGCGCCAACGUCCUCAACCUCCAAUGCAUCCCACCACAUGAUGAUGCCUGAAGAGCCUUGGUUUUUUG the “polymerase ribozyme fitness (log ratio)” value was -4.65.
For GACCAAUCUGCCCUCAGAGCUCGAGAAUAUCUUCGGAUGCAGAGGAGGCAGGCUUCGGUGGCGCGAUAGCGCCAACGUCCUCAACCUCCAAUGCAUCCCACCACAUGAUGAUGCCUGAAGAGACUUGGUUUUUUG, the “polymerase ribozyme fitness (log ratio)” value was -1.91.
In the case of GACCAAACUGCCCUCAGAGCUCGAGAACAUCUUCGGAUGCAGAGGAGGCAGGCUUCGGUGGCGUGAUAGCGCCAACGUCCUCAACCUCCAAUGCAUCCCACCACAUGAUGAUGCCUGAAGAGCCUUGGUUUUUUG, the “polymerase ribozyme fitness (log ratio)” value is reported as -0.637.
With GACCAAUCUGCCCUCAGAGCUCGGGAACAUCUUCGGAUGCAGAGGAGGCAUGCUUCGGUGGCGCGAUAGCGCCAACGUCCUCAACCUCCAAUGCAUCCCACCACAUGAUGAUGCCUGAAGAGCCUUGGUUUUUUG the “polymerase ribozyme fitness (log ratio)” value was -4.9.
For GACCAAUCUGCCCUCAGAGCUCGAGAACAUCUUCGGAUGCAGAGGAGGCAGGCUUCGGUGGCGCGAUAGCGCCAACGCCCUCAACCUCCAAUACAUCCCACCACAUGAUGAUGCCUGAAGAGCCUUGGUUUUUUG, the “polymerase ribozyme fitness (log ratio)” value was -0.707.
For GACCAAUCUGCCCUCAGAGCUCGAGAACAUCUUCGGAUGCAGAGGAGGCAGGCUUCGGUGUCGCGCUAGCGCCAACGUCCUCAACCUCCAACGCAUCCCACCACAUGAUGAUGCCUGAAGAGCCUUGGUUUUUUG, the “polymerase ribozyme fitness (log ratio)” value was -2.21.
In the case of GACCAAUCUGACCUCAGAGCUCGAGAACAUCUUCGGAUGCAGAGGAGGCAGGCUUCGGUGGCGCGAUAGCCCCAACGUCCUCAACCUCCAAUGCAUCCCACCACAUGAUGAUGCCUGAAGAGCCUUGGUUUUUUG, the “polymerase ribozyme fitness (log ratio)” value is reported as -2.37.
In the case of GACCAAUCUGCCCUCAGAGCUCGAGAACAUCUUCGGAUGCAGAGGAGGCAGGCUUCGGUGGUGCGAUAGCGCCAACGUCCUCAACCUCCCAUGCAUCCCACCACAUGAUGAUGCCUGAAGAGCCUUGGUUUUUUU, the “polymerase ribozyme fitness (log ratio)” value is reported as -2.45.
With GACCAAACUGCCCUCAGAGCUCGAGAACAUCUUCGGUUGCAGAGGAGGCAGGCGUCGGUGGCGCGAUAGCGCCAACGUCCUCAACCUCCAAUGCAUCCCACCACAUGAUGAUGCCUGAAGAGCCUUAUUUUUUUG the “polymerase ribozyme fitness (log ratio)” value was -3.62.
In the case of GACCAAUCUGCCCUCAGAGCUCGAGAACAUCUUCGGAUGCAGAGGAGGCAGGCUUCGGUGUCGCGAUAGCGCCAACGUCCUCAACCUCCAAUGCAUCCCACCACAUGAUGAUGCCCGAAGAGCCUUGGUUUUUUG, the “polymerase ribozyme fitness (log ratio)” value is reported as 0.227.
In the case of GACCAAUCUGCCCUUAGAGCUCGAGAACAUCUUCGGAUGCAGCGGAGGCAGGCUUCGGUGGCGCGAUAGCGCCAACGUCCUCAACCUCCAAUGCAUCCCACCACAUGAUGAUGCCUGAAGAGCCUUGGUUUUUUG, the “polymerase ribozyme fitness (log ratio)” value is reported as -2.99.
In the case of GACCAAUCUGCCCUCAGAGCUCGAGAACAUCUUCGGAUGCAGAGGAGGCAGGCUUCGGUGGCGCGAUAGCGCCAACGUCCUCAAACUCCAAUGCAUCCCACCACAUGAUGUUGCCUGAAGAGCCUUGGUUUUUUG, the “polymerase ribozyme fitness (log ratio)” value is reported as -4.18.
With GACCAAUCUGCCCUCAGAGCUCGAGAACAUCAUCGGAUGCAGAGGAGGCAGGCUUCGGUGGCGCGAUAGCGCCAACGUCCUCAACCUCCAAUGCAUCCCACCACAUGAUGAUGGCUGAAGAGCCUUGGUUUUUUG the “polymerase ribozyme fitness (log ratio)” value was -4.17.
In the case of GACCAAUCUGCCCUCAGAGCUCGAGAACAUCUUCGGAUGCAGAGGAGGCAGGCUUCGGUGCCGCGAUAGCGCCAACGUCCUCAACCUCCAAUGCAUCCCACCACAUGAUGAUGCCUGAAGAGCCUUGCUUUUUUG, the “polymerase ribozyme fitness (log ratio)” value is reported as -4.34.
With GACCAAUCUGCCCUCAGAGCUCGAGAACAUCUUCGGAUGCAGAGGAGGCAGGCUCCGGUGGCGCGAUAGCGCCAACGUCCUCAACCUCCAAGGCAUCCCACCACAUGAUGAUGCCUGAAGAGCCUUGGUUUUUUG the “polymerase ribozyme fitness (log ratio)” value was -2.25.
With GACCAAUCUGCCCUCAGAGCUCGAGAACAUCUUCGGAUGCAGAGGAGGCAGGCUUCGGCGGCGCGAUAGCGCCAACGUCCUCAACCUCCAAUGCAUCCCACCACAUGAUGAUGCCUUAAGAGCCUUGGUUUUUUG the “polymerase ribozyme fitness (log ratio)” value was -2.88.
In the case of GACCAAUCUGCCCUCAGAUCUCGAGAACAUCUUCGGAUGCAGAGGAGCCAGGCUUCGGUGGCGCGAUAGCGCCAACGUCCUCAACCUCCAAUGCAUCCCACCACAUGAUGAUGCCUGAAGAGUCUUGGUUUUUUG, the “polymerase ribozyme fitness (log ratio)” value is reported as -5.25.
In the case of GACCAAUCUGCCCUCAGAGCUCGAGAACAUCCUCGGAUGCAGAGGAGGCAGGCUUCUGUGGCGCGAUAGCGCCAACGUCCUCAACCUCCAAUGCAUCCCACCACAUGAUAAUGCCUGAAGAGCCUUGGUUUUUUG, the “polymerase ribozyme fitness (log ratio)” value is reported as -2.
For GACCAAUCUGACCUCAGAGCUCGAGAACAUCUUCGGAUGCAGAGGAGGCAGGCUUCGGUGGCGCGAUAGCGCCAACGUCCUCAACCUCCAAAGCAUCCCACCACAUGAUGAUGCCUGAAGAGCCUUGGUUUUUUG, the “polymerase ribozyme fitness (log ratio)” value was -4.36.
In the case of GACCAAGCUGCCCUCAGAGCUCGAGAACAUCUUCGGAUGCAGAGGAGGCUGGCUUCGGUGGCGCGAUAGCGCCAACGUCCUCAACCUCCAAUGCAUCCCACCACAUGAUGAUGCCUCAAGAGCCUUGGUUUUUUG, the “polymerase ribozyme fitness (log ratio)” value is reported as -3.6.
With GACCAAUCUGCCCUCAGAGCUCGAGAACAUCUUCGGAUGCAAAGCAGGGAGGCUUCGGUGGCGCGAUAGCGCCAACGUCCUCAACCUCCAAUGCAACCCACCACAUGAUGAUGCCUGAAGAGCCUUGGUUUUUUG the “polymerase ribozyme fitness (log ratio)” value was -3.8.
